Experimental data: PMC5025757, “Sequences flanking the core-binding site modulate glucocorticoid receptor structure and activity”

Experiments:
[1] = target: GR DBD A477T (dim mutant) (rat, UniProt P06536 440-525, A477T); test: EMSA; affinity lower than wild type; EMSA: 20 mM Tris pH 7.5, 2 mM MgCl2, 1 mM EDTA, 10% glycerol, 0.3 mg/ml BSA, 4 mM DTT, 0.05 ug/ul dIdC, 1.25 nM DNA, 30 min; NMR: 20 mM Na phosphate, 100 mM NaCl, 1 mM DTT, pH 6.7, 5% D2O, imino titration at 25 C; details: protein: recombinant; chain copies: 2; label: Cy5 5' of strand 1; blunt
Chain of GR DBD A477T (dim mutant) (P06536 440-525 A477T): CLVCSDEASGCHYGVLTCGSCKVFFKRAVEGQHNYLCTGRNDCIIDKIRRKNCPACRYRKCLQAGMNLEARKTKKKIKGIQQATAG

GR DBD wild type [2] = target: T1, GR DBD wild type (rat, UniProt P06536 440-525); test: EMSA; value only in figure; slightly higher affinity than A/T; EMSA: 20 mM Tris pH 7.5, 2 mM MgCl2, 1 mM EDTA, 10% glycerol, 0.3 mg/ml BSA, 4 mM DTT, 0.05 ug/ul dIdC, 1.25 nM DNA, 30 min; NMR: 20 mM Na phosphate, 100 mM NaCl, 1 mM DTT, pH 6.7, 5% D2O, imino titration at 25 C; details: protein: recombinant; chain copies: 2; label: Cy5 5' of strand 1; blunt
T1 sequence (P06536 440-525): as the sequence (P06536 440-525 A477T) above, with T38A counted along it

GR DBD wild type [3] = target: T1, GR DBD wild type; test: NMR (15N-HSQC); EMSA: 20 mM Tris pH 7.5, 2 mM MgCl2, 1 mM EDTA, 10% glycerol, 0.3 mg/ml BSA, 4 mM DTT, 0.05 ug/ul dIdC, 1.25 nM DNA, 30 min; NMR: 20 mM Na phosphate, 100 mM NaCl, 1 mM DTT, pH 6.7, 5% D2O, imino titration at 25 C; details: protein: recombinant; chain copies: 2; blunt
GR DBD wild type [4] = target: T1, GR DBD wild type; test: EMSA; value only in figure; similar Kd for A/T and G/C flanks; EMSA: 20 mM Tris pH 7.5, 2 mM MgCl2, 1 mM EDTA, 10% glycerol, 0.3 mg/ml BSA, 4 mM DTT, 0.05 ug/ul dIdC, 1.25 nM DNA, 30 min; NMR: 20 mM Na phosphate, 100 mM NaCl, 1 mM DTT, pH 6.7, 5% D2O, imino titration at 25 C; details: protein: recombinant; chain copies: 2; label: Cy5 5' of strand 1; blunt
GR DBD wild type [5] = target: T1, GR DBD wild type; test: NMR (1D imino proton titration); 25 C; EMSA: 20 mM Tris pH 7.5, 2 mM MgCl2, 1 mM EDTA, 10% glycerol, 0.3 mg/ml BSA, 4 mM DTT, 0.05 ug/ul dIdC, 1.25 nM DNA, 30 min; NMR: 20 mM Na phosphate, 100 mM NaCl, 1 mM DTT, pH 6.7, 5% D2O, imino titration at 25 C; details: protein: recombinant; chain copies: 2; blunt
GR DBD wild type [6] = target: T1, GR DBD wild type; test: NMR (1D imino proton titration); G46 more broadened than with G/C; 25 C; EMSA: 20 mM Tris pH 7.5, 2 mM MgCl2, 1 mM EDTA, 10% glycerol, 0.3 mg/ml BSA, 4 mM DTT, 0.05 ug/ul dIdC, 1.25 nM DNA, 30 min; NMR: 20 mM Na phosphate, 100 mM NaCl, 1 mM DTT, pH 6.7, 5% D2O, imino titration at 25 C; details: protein: recombinant; chain copies: 2; blunt

B1: G-Cgt-C EMSA (dsDNA)
DNA 1: ACCGAGAACATTTTGTACGCCTC
DNA 2: GAGGCGTACAAAATGTTCTCGGT
With B1 the Kd [1] was 3.5 ± 1.1 µM and the binding result (GR DBD wild type [2]) was “binds”.

B2: Cgt A-C NMR (dsDNA)
DNA 1: GCCAAGAACATTTTGTACGCCTCG
DNA 2: CGAGGCGTACAAAATGTTCTTGGC
B2: binds (GR DBD wild type [3]).

B3: G-Sgk-C EMSA (dsDNA)
DNA 1: ACCGAGAACATTTTGTCCGCCTC
DNA 2: GAGGCGGACAAAATGTTCTCGGT
B3: binds (GR DBD wild type [4]).

B4: A-Sgk-T EMSA (dsDNA)
DNA 1: ACCAAGAACATTTTGTCCGTCTC
DNA 2: GAGACGGACAAAATGTTCTTGGT
B4: binds (GR DBD wild type [4]).

B5: Cgt G-C NMR (dsDNA)
DNA 1: GCCGAGAACATTTTGTACGCCTCG
DNA 2: CGAGGCGTACAAAATGTTCTCGGC
B5: binds (GR DBD wild type [5]).

B6: A-Cgt-T EMSA (dsDNA)
DNA 1: ACCAAGAACATTTTGTACGTCTC
DNA 2: GAGACGTACAAAATGTTCTTGGT
B6 was tested, and the Kd [1] was 3.1 ± 0.4 µM and the binding result (GR DBD wild type [4]) was “binds”.

B7: Cgt A-T NMR (dsDNA)
DNA 1: GCCAAGAACATTTTGTACGTCTCG
DNA 2: CGAGACGTACAAAATGTTCTTGGC
B7: binds (GR DBD wild type [6]).
